In US20250283871A1, “COMPOSITIONS AND METHODS FOR MODULATING THE INTERACTION BETWEEN SS18-SSX FUSION ONCOPROTEIN AND NUCLEOSOMES” (Dana-Farber Cancer Institute, Inc., priority 2020, published 2025):
Where “and” joins values, the source holds several entries; their conditions need not be identical. Equal entries are not always repeated.

What was measured:
[1] = target: mammalian mononucleosomes (HEK293T) carrying H4(20to23)K20me0 (mammalian (HEK293T)) (UniProt P62805); test: MBP-SSX1 78aa pull-down, targeted histone MS
[2] = target: mammalian mononucleosomes (HEK293T) carrying H3K4me2 (mammalian (HEK293T)) (UniProt P68431); test: MBP-SSX1 78aa pull-down, targeted histone MS
[3] = target: mammalian mononucleosomes (HEK293T) carrying H3K9me2S10ph1K14ac0 (mammalian (HEK293T)) (UniProt P68431); test: MBP-SSX1 78aa pull-down, targeted histone MS
[4] = target: mammalian mononucleosomes (HEK293T) carrying H2A(4to11)K5ac1K9ac1 (mammalian (HEK293T)) (UniProt P0C0S8); test: MBP-SSX1 78aa pull-down, targeted histone MS
[5] = target: mammalian mononucleosomes (HEK293T) carrying H4(4to17)K8ac1K12ac1K16ac1me0 (mammalian (HEK293T)) (UniProt P62805); test: MBP-SSX1 78aa pull-down, targeted histone MS
[6] = target: mammalian mononucleosomes (HEK293T) carrying H4(4to17)K16ac1me0 (mammalian (HEK293T)) (UniProt P62805); test: MBP-SSX1 78aa pull-down, targeted histone MS
[7] = target: mammalian mononucleosomes (HEK293T) carrying H2B(1to29)K5ac1 (mammalian (HEK293T)) (UniProt P62807); test: MBP-SSX1 78aa pull-down, targeted histone MS
[8] = target: mammalian mononucleosomes (HEK293T) carrying H2A(4to11)K9ac1 (mammalian (HEK293T)) (UniProt P0C0S8); test: MBP-SSX1 78aa pull-down, targeted histone MS
[9] = target: mammalian mononucleosomes (HEK293T) carrying H4(4to17)K12ac1me0 (mammalian (HEK293T)) (UniProt P62805); test: MBP-SSX1 78aa pull-down, targeted histone MS
[10] = target: mammalian mononucleosomes (HEK293T) carrying H4(4to17)K5ac1K8ac1me0 (mammalian (HEK293T)) (UniProt P62805); test: MBP-SSX1 78aa pull-down, targeted histone MS
[11] = target: mammalian mononucleosomes (HEK293T) carrying H3K4ac1 (mammalian (HEK293T)) (UniProt P68431); test: MBP-SSX1 78aa pull-down, targeted histone MS
[12] = target: mammalian mononucleosomes (HEK293T) carrying H4(20to23)K20me3 (mammalian (HEK293T)) (UniProt P62805); test: MBP-SSX1 78aa pull-down, targeted histone MS
[13] = target: mammalian mononucleosomes (HEK293T) carrying H2A(12to17)K15ac1 (mammalian (HEK293T)) (UniProt P0C0S8); test: MBP-SSX1 78aa pull-down, targeted histone MS
[14] = target: mammalian mononucleosomes (HEK293T) carrying H3K9me2S10ph1K14ac1 (mammalian (HEK293T)) (UniProt P68431); test: MBP-SSX1 78aa pull-down, targeted histone MS
[15] = target: mammalian mononucleosomes (HEK293T) carrying H2AZ(1to19)ac0 (mammalian (HEK293T)) (UniProt P0C0S5); test: MBP-SSX1 78aa pull-down, targeted histone MS
[16] = target: mammalian mononucleosomes (HEK293T) carrying H4(4to17)K5ac1K16ac1me0 (mammalian (HEK293T)) (UniProt P62805); test: MBP-SSX1 78aa pull-down, targeted histone MS
[17] = target: mammalian mononucleosomes (HEK293T) carrying H4(4to17)K5ac1K8ac1K16ac1me0 (mammalian (HEK293T)) (UniProt P62805); test: MBP-SSX1 78aa pull-down, targeted histone MS
[18] = target: mammalian mononucleosomes (HEK293T) carrying H3K4me1 (mammalian (HEK293T)) (UniProt P68431); test: MBP-SSX1 78aa pull-down, targeted histone MS
[19] = target: mammalian mononucleosomes (HEK293T) carrying H4(4to17)ac0me0 (mammalian (HEK293T)) (UniProt P62805); test: MBP-SSX1 78aa pull-down, targeted histone MS
[20] = target: mammalian mononucleosomes (HEK293T) carrying H3K9me1S10ph1K14ac1 (mammalian (HEK293T)) (UniProt P68431); test: MBP-SSX1 78aa pull-down, targeted histone MS
[21] = target: mammalian mononucleosomes (HEK293T) carrying H4(20to23)K20me2 (mammalian (HEK293T)) (UniProt P62805); test: MBP-SSX1 78aa pull-down, targeted histone MS
[22] = target: mammalian mononucleosomes (HEK293T) carrying H4(4to17)K12ac1K16ac1me0 (mammalian (HEK293T)) (UniProt P62805); test: MBP-SSX1 78aa pull-down, targeted histone MS
[23] = target: mammalian mononucleosomes (HEK293T) carrying H2A(4to11)ac0 (mammalian (HEK293T)) (UniProt P0C0S8); test: MBP-SSX1 78aa pull-down, targeted histone MS
[24] = target: mammalian mononucleosomes (HEK293T) carrying H3K9me3S10ph1K14ac0 (mammalian (HEK293T)) (UniProt P68431); test: MBP-SSX1 78aa pull-down, targeted histone MS
[25] = target: mammalian mononucleosomes (HEK293T) carrying H4(4to17)K5ac1K8ac1K12ac1K16ac1me0 (mammalian (HEK293T)) (UniProt P62805); test: MBP-SSX1 78aa pull-down, targeted histone MS
[26] = target: mammalian mononucleosomes (HEK293T) carrying H4(4to17)K8ac1K12ac1me0 (mammalian (HEK293T)) (UniProt P62805); test: MBP-SSX1 78aa pull-down, targeted histone MS
[27] = target: mammalian mononucleosomes (HEK293T) carrying H3K4me3 (mammalian (HEK293T)) (UniProt P68431); test: MBP-SSX1 78aa pull-down, targeted histone MS
[28] = target: mammalian mononucleosomes (HEK293T) carrying H2A(12to17)K13ac1 (mammalian (HEK293T)) (UniProt P0C0S8); test: MBP-SSX1 78aa pull-down, targeted histone MS
[29] = target: mammalian mononucleosomes (HEK293T) carrying H2A(4to11)K5ac1 (mammalian (HEK293T)) (UniProt P0C0S8); test: MBP-SSX1 78aa pull-down, targeted histone MS
[30] = target: mammalian mononucleosomes (HEK293T) carrying H4(20to23)K20me1 (mammalian (HEK293T)) (UniProt P62805); test: MBP-SSX1 78aa pull-down, targeted histone MS
[31] = target: mammalian mononucleosomes (HEK293T) carrying H2AZ(1to19)K4ac1 (mammalian (HEK293T)) (UniProt P0C0S5); test: MBP-SSX1 78aa pull-down, targeted histone MS
[32] = target: mammalian mononucleosomes (HEK293T) carrying H2A(12to17)ac0 (mammalian (HEK293T)) (UniProt P0C0S8); test: MBP-SSX1 78aa pull-down, targeted histone MS
[33] = target: mammalian mononucleosomes (HEK293T) carrying H4(4to17)K5ac1me0 (mammalian (HEK293T)) (UniProt P62805); test: MBP-SSX1 78aa pull-down, targeted histone MS
[34] = target: mammalian mononucleosomes (HEK293T) carrying H4(4to17)K5ac1K8ac1K12ac1me0 (mammalian (HEK293T)) (UniProt P62805); test: MBP-SSX1 78aa pull-down, targeted histone MS
[35] = target: LZIC (sp|Q8WZA0|LZIC_HUMAN) (human) (UniProt Q8WZA0); test: HA affinity purification from HEK-293T nuclear extract, mass spectrometry peptide counts
[36] = target: KCNMA1 (tr|A0A1W2PP06|A0A1W2PP06_HUMAN) (human) (UniProt Q12791); test: as above
[37] = target: LPGAT1 (sp|Q92604|LGAT1_HUMAN) (human) (UniProt Q92604); test: as above
[38] = target: recombinant H2A K119Ub mononucleosomes (UniProt P04908); test: AlphaLISA; 95% CI 7.2-48.5
[39] = target: TSP1_HUMAN Thrombospondin-1 (human) (UniProt P07996); test: anti-SMARCA4 (BRG1) IP, mass spectrometry, human fibroblasts
[40] = target: cellular chromatin (endogenous nucleosomes; core histones H2A, H2B, H3, H4) (human) (UniProt P0C0S8); test: differential salt extraction, immunoblot
[41] = target: cellular chromatin (endogenous nucleosomes; core histones H2A, H2B, H3, H4) (human) (UniProt P0C0S8); test: cell-based or functional assay
[42] = target: recombinant H2A K119Ub mononucleosomes (UniProt P04908); test: AlphaLISA; 95% CI 2.3-9.1
[43] = target: recombinant, unmodified mononucleosomes (UniProt P04908); test: AlphaLISA; 95% CI 9.1-53.3
[44] = target: mammalian mononucleosome (HEK293T) carrying histone H3 K79me2 (human (HEK-293T cells)) (UniProt P68431); test: MBP-SSX1 78aa pull-down of pooled HEK293T mononucleosomes, targeted quantitative histone MS; input c3-c5: 0.498, 0.469, 0.455
[45] = target: mammalian mononucleosome (HEK293T) carrying histone H3 K79me1 (human (HEK-293T cells)) (UniProt P68431); test: MBP-SSX1 78aa pull-down of pooled HEK293T mononucleosomes, targeted quantitative histone MS; input c3-c5: 0.268, 0.441, 0.301

MBP-SSX1 78aa protein (from UniProt Q16384 111-188)
log2norm (Light/Heavy) intensity ratio [1]: 0.017 log2 and 0.092 log2 | log2norm (Light/Heavy) intensity ratio [2]: 0.778 log2 and 0.532 log2 | log2norm (Light/Heavy) intensity ratio [3]: -0.683 log2 and -1.09 log2 | log2norm (Light/Heavy) intensity ratio [4]: -0.031 log2 and -0.049 log2 | log2norm (Light/Heavy) intensity ratio [5]: 0.677 log2 and 0.625 log2 | log2norm (Light/Heavy) intensity ratio [6]: -0.391 log2 and -0.337 log2 | log2norm (Light/Heavy) intensity ratio [7]: 0.273 log2 and 0.323 log2 | log2norm (Light/Heavy) intensity ratio [8]: -0.254 log2 and -0.375 log2 | log2norm (Light/Heavy) intensity ratio [9]: -0.207 log2 and -0.275 log2 | log2norm (Light/Heavy) intensity ratio [10]: 0.107 log2 and 0.094 log2 | log2norm (Light/Heavy) intensity ratio [11]: 0.263 log2 and 0.32 log2 | log2norm (Light/Heavy) intensity ratio [12]: -0.109 log2 and 0.055 log2 | log2norm (Light/Heavy) intensity ratio [13]: 0.042 log2 and -0.086 log2 | log2norm (Light/Heavy) intensity ratio [14]: -0.87 log2 and -1.01 log2 | log2norm (Light/Heavy) intensity ratio [15]: -0.784 log2 and -0.697 log2 | log2norm (Light/Heavy) intensity ratio [16]: 0.226 log2 and 0.367 log2 | log2norm (Light/Heavy) intensity ratio [17]: 0.474 log2 and 0.311 log2 | log2norm (Light/Heavy) intensity ratio [18]: 0.74 log2 and 0.353 log2 | log2norm (Light/Heavy) intensity ratio [19]: -0.613 log2 and -0.573 log2 | log2norm (Light/Heavy) intensity ratio [20]: -2.67 log2 and -2.51 log2 | log2norm (Light/Heavy) intensity ratio [21]: -0.414 log2 and -0.391 log2 | log2norm (Light/Heavy) intensity ratio [22]: 0.204 log2 and 0.304 log2 | log2norm (Light/Heavy) intensity ratio [23]: -0.026 log2 and 0.061 log2 | log2norm (Light/Heavy) intensity ratio [24]: -0.566 log2 and -1.03 log2 | log2norm (Light/Heavy) intensity ratio [25]: 0.276 log2 and 0.245 log2 | log2norm (Light/Heavy) intensity ratio [26]: -0.198 log2 and -0.093 log2 | log2norm (Light/Heavy) intensity ratio [27]: 0.766 log2 and 0.505 log2 | log2norm (Light/Heavy) intensity ratio [28]: 0.032 log2 and -0.047 log2 | log2norm (Light/Heavy) intensity ratio [29]: 0.569 log2 and 0.624 log2 | log2norm (Light/Heavy) intensity ratio [30]: -0.427 log2 and -0.443 log2 | log2norm (Light/Heavy) intensity ratio [31]: -0.217 log2 and 0.048 log2 | log2norm (Light/Heavy) intensity ratio [32]: 0.201 log2 and -0.12 log2 | log2norm (Light/Heavy) intensity ratio [33]: -0.053 log2 and 0.075 log2 | log2norm (Light/Heavy) intensity ratio [34]: -0.223 log2 and -0.27 log2

HA-SS18 WT (from UniProt Q15532 1-387)
Total peptides [35]: 1 peptides | Unique peptides [35]: 1 peptides | Total peptides [36]: 1 peptides | Unique peptides [36]: 1 peptides | Total peptides [37]: 1 peptides | Unique peptides [37]: 1 peptides

GST-SSXdel7aa (acidic C-term DPEEDDE-->AAAAAAA) (from UniProt Q16384 111-181)
EC50 [38]: 18.7 nM

SMCA4_HUMAN Transcription activator BRG1 (from UniProt P51532 1-1647)
NSAF [39]: 0.000217

wild-type SS18-bound BAF complexes (HA-SS18 WT purification) (from UniProt Q15532 1-387)
NaCl concentration of elution from chromatin [40]: 300 to 500 mM

GFP-SS18 WT (from UniProt Q15532 2-418)
FRAP recovery half-time [41]: 10.1 s

SS18-SSX-bound BAF complexes (HA-SS18-SSX1 purification)
NaCl concentration of elution from chromatin [40]: > 1000 mM

GFP-SS18-SSX1
FRAP recovery half-time [41]: 33.9 s

GST-SSX1 (78aa) (from UniProt Q16384 111-188)
EC50 [42]: 4.6 nM | EC50 [43]: 22.1 nM

MBP-SSX1 78aa (from UniProt Q16384 111-188)
log2norm (Light/Heavy) intensity ratio normalized to histone norm peptide [44]: 0.826 log2 and 0.557 log2 | log2norm (Light/Heavy) intensity ratio normalized to histone norm peptide [45]: 0.954 log2 and 0.54 log2
